# Measured values published in the nanobody polyreactivity screen of Harvey et al. (2022).
# Test: yeast display, Sf9 membrane polyspecificity reagent, FACS + sequencing; frameworks hold sequencing errors
# How it was run: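 Galactose-induced (36–48 hours) yeast carrying a synthetic nanobody display library were exposed to 10% biotinylated, detergent-solubilized Sf9 membrane reagent at 4 °C for 1 hour. FACS followed streptavidin microbead enrichment, using low and high (top ~1%) gates for expression (anti-HA) and reagent binding (streptavidin). Colony PCR, MiSeq 2 × 250 sequencing and CDR-length filtering followed. Labels for polyreactivity reflect the gate of origin.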
row,Sequence,polyreactivity (PSR sort gate)
1,EEELVESGGGIVQAGGSLRLSCAASGFIFGYNAMGWYRQAPGKERELVAAISSGDDTNYADSVKGRFTISRDNAKNTVYLQMNSLKPEDTAVYYCAAEVWTAFTLGSYWSVVDYDYWGQGTQVSVSS,low polyreactivity
2,EEELVESGGGLVQAGGSLRLSCAASGSTFLVYAMGWYRQAPGKERELVAVITSGGRTNYADSVKGRFTISRDNAKNTVYLQMNSLKPEDTAVYYCAVDGRSVPAWWPRFDYWGQGTQVTVSS,low polyreactivity
3,EVQLVESGGGLDQAGGSLRLICAASARTFIWNAMGWYRQEPGKERDLVAAITRNGDSTYYADSVKGRFTISRDNAKNTVYLQMNRLKPEDTAVYYCAAYSRVFVYRTVGNYGWMNYWGQGTQVTVSS,high polyreactivity
4,EVQLVESGGGLVQAGGSLRLSCAASGFIFGYNAMGWYRQAPGKERDLVAAISWSGGSTYYADSVKGRYTISRDNAKNTVYLQMNSLKPEDTAVYYCNRGYTAQVFTEFDYWGQGTLVTVSS,low polyreactivity
5,EVQLVESGGGLVQPGGSLRLSCAASGYIYSRYRMGWYRQAPGKGREFVAAISGGSSTNYADSVKGRFTISRDNSKNTVYLQMNSLRAEDTAVYYCAAYQIDSDPRVYWGQGTQVTVSS,low polyreactivity
6,EVQLVESGGGLVQPGGSLRLSCAASGYIYSRYRMGWYRQAPGKGREFVAAISGGSSTNYADSVKGRFTISRDNSKYTVYLQMNSLRADDTALYYCAAYKIDSDPRVYWGQGTQVTVSS,low polyreactivity
7,HAQLQESGGCLVQAGGSLRPSCAASGSIFRVSGMGWYRRAPGKERELVASIGFGSITYYADRVKGRFTISRDNAINTVYLQMNSLKPEDTAVYYCAVQVQDESWLDYWGQGTQVTVSC,low polyreactivity
8,HDQLVESGGGLVQAGGSLRLSCAASGSTFTINVMGWYRQAPGKERELVAAINGGGRTNYADSVKGRFTISRDNAKNTVYVQMNILKPEDTAVYYCAADGLSNVRQMDYWGQGTQVTVSS,low polyreactivity
9,HFQLVESGGGLVQAGGSLRLSCAASVFIILINVMGWSRQAPGKERELVAVITGGGTTNYADSVKGRFTISRDNANNTVYLQMNSLKPVDTAGYYCAVDAGAGDNDYWGQGTQVTVSS,low polyreactivity
10,HVHLVESGGGLVQAGGSLRLSCAASGRTFSRYAMGWYRQAPGKERELVAAITSGGSTNYADSVKGRFTISRDNAKNTVYLQKNSLKPEDTAVYYCAKRYFRSSRDGLGTTHPYDYWGQGTQVTVSS,high polyreactivity
11,HVHLVESGGGLVQAGGSLRLSCAASGRTFSTYAMGRYRQAPGKERELVATIRVSGSSTYYADSVKGRFTISRDNAKNTVYLQMNSLKQEDTEVYYCANRGLSRYYDYYYWGQGTQVTVSS,high polyreactivity
12,HVHLVESGGGLVQAGGSLRLSCASSGPTFGWNVMGWYRQAPGKERELVAAISGSGGSTYYADSVKGRFTISRDNAKNTVYSQMNSLKPEDTAVYYCAALYGPGREYDYWGQGTQVSVSS,low polyreactivity
13,HVHLVESGGGLVQAGGSLSLICAASGFIFRYYAMGWYRQAPGTEREVVAAITRGGSTYYADSVKGRFTISRDNAKNTVYLQMNSLKPVATAVYYCAARLYTQYYYWGQGTQVTVSS,high polyreactivity
14,HVLLVESGGGLVQAGGSLRLSFAATAFTFTYYTMGSYRQAPGKETELVAAITSSGGSTYYADSVMGRFTISRDNANNTVYLQMNSLKPEDTAVYYCAASRYSTRFGARVYWGQVTQVTVSS,high polyreactivity
15,HVQHVESGGGLVHAGGSLRLRCAASGSIFVYYAMGWYRQAPGKERELVAAISGGGGRKYYADSVKGRFTISRDNANNTVYLQMNSLKPDDTAVYYCAARRATYPGGFYSWGQGSQVTVSS,high polyreactivity
16,HVQIVESGGGLVQAGGSLRLSCAASGRIFVPYVMGWYRQAPGKERELVASISDSDTSTYYADSVKGRFTISRDNAKNTVYLQINSLKPEDTAVYYCNVDNWGQGTQVTVSS,low polyreactivity
17,HVQLEESGGGLDQAGGSLRLSCAASGITFVRNAMGWYRQAPGKERELVAVITSGGGTYYADSVKGRFTISRDNAKNTVYLQMNSLKPEDTAVYYWAGDIHVNGSGYWGKGTQVTVSS,low polyreactivity
18,HVQLQESGGGLMQAGGSQRLSCAASGSISYNSDMGWYRQAPGKEREFVAGIGYGTTTNYADSVKGRFTTSRDNAKNTVYLQMISMKPEDTEVYYCAAYQGNGYEFYYWGQGTQVTVRS,low polyreactivity
19,HVQLVDSGGGLVQAGGSLRLTCAASGNIFVPYAMGWYRQAPGKERELVAAINGGGSTNYADSLKGRFTISRDNAKNTVYLQMNSLKPEDTAVYYCAAVWYFLSLWYDYWGQGTQVTVSS,high polyreactivity
20,HVQLVDSSGRVVQARCSLRLSCAASGSTFHDNAMGWYRQAPGKDRDLEAAISSGGRTNYADSVKGRFTISRDNAKNTVYLQMNCLKPEDTAVYYCAASFRRWYFYARHDYGYWGLGTQVTVSS,low polyreactivity
21,HVQLVESAGGLVQAGGSLRLSCAASGFIFGYYAMGWYRQAPGKERELVAAINYNDDSTYYADSVKGRFTISRDNAKNTVYLQMNSLKPEDTAVYYCAVRRWDAGDYWGQGTQVTVSS,low polyreactivity
22,HVQLVESAGGLVQAGGSLRVSCAASGRTFVENAMGWYRQAPGKERELVAAITYRGGRTFYADSVKGRFTISLDNAKNTVYLQMNSLTPEETAVYYCNAVRRTGGHGDYWGHGTQVTVSS,high polyreactivity
23,HVQLVESAGGLVQARGSLRLSCAASGSIFVTYAMGWYRQARGKERELVATITYSGGSTSYADSVKGRFTISRDNAKITVYLQMNSLKPDDTAVYFCAADLDSDFDYWGQGTQVTVSS,low polyreactivity
24,HVQLVESGGGLVQAGGSLRESCAASGRTFDDIAMGRYRQAPGKERELVAAINWSGASTYYADSVKGRFTISRDNAKNTVYLQMNSLKPEDTAVYYCAAVFWKSDSAYYEYGYWGQGTQVTVSS,low polyreactivity
25,HVQLVESGGGLVQAGGSLRFSCAASGFIFTNYAMGWYRQAPGTERELVAAISFSGSSTYYADSVKGRFTISRDNAKNTVYLQMNSLNPEDTAVYYCAVDGVPSSFSHDYWGQGTKVTVSS,low polyreactivity
26,HVQLVESGGGLVQAGGSLRISCAASGLIFVFYAMGWYRQAPGKERELVAAISTSGDRTYYADSVKGRFTISRDNAKNTVYLQMISLKPEDTAVYFCNARRLGYRSGHPGYYWGQGTQVTVSS,high polyreactivity
27,HVQLVESGGGLVQAGGSLRISCAASGRTFGHYAMGWNRQAPGKQRELVAVISGRNGDSTYYADSVKGRFTISRDNAKNTVYLQMNSLKPVYTAVYYCAAYKPWEYDYWGQGTEVTVSS,low polyreactivity
28,HVQLVESGGGLVQAGGSLRLRCAASGFTFYYNAMGWSRQAPGKERELVAAISTRGGNTYYADSVKGRFTISRDYAKNTVYLQRNSLKPEATAVYYCARIIRREGRYDYWGHGTQVTVSS,high polyreactivity
29,HVQLVESGGGLVQAGGSLRLSCAASGFTFANNAMGWYRQAPRKERELVAAISRSGGSTYYADSVKGRFTISRDNAKNTVYLQMNSLKPEDTAVYYCAVYNRPYKEYGYNYWGQGTQVTVSS,high polyreactivity
30,HVQLVESGGGLVQAGGSLRLSCAASGFTFVPYAMGWYRQAPGKERELVAAISSGGSTYYADSVKGRFTISRDNAKNTVYLQMNSLKPEDTAVYYCATTGWYRYGRKFYYWGQGTQVTVSS,high polyreactivity
